Data reported in article doi:10.1101/2022.02.17.480908.

Target: urea pre-unfolded MLucV (stable small aggregates) (firefly)
Experiment: SEC-RALS

Which stoichiometry N does the source give for “urea pre-unfolded MLucV (stable small aggregates)” here?
Its stoichiometry N is 12.
